Assay results published in publication PMC6675122, “N-terminal β-strand underpins biochemical specialization of an ATG8 isoform” (PLoS Biology, 2019).
“Also recorded” adds a separate entry of the source.

Tested on: ATG8
Assay: in planta Co-IP, Vps4 with ATG8 (ATG8-2.2, ATG8-4, ATG8-4-S3)
Format: binding, Solanum tuberosum

B1: Vps4: potato vacuolar protein sorting 4; known as SKD1 in A. thaliana; ESCRT function (protein)
chain: MYSNFKEQAIEFVRQAVQEDNGGNYAKAFPLYMNALEYFKTHLKYEKNPKIKEAITQKFTEYLRRAEEIRAVLDEGGSGPGPNGGDAAVMAKPKTKPKDGEDGEDPEQSKLRAGLNSAIVREKPNVKWNDVAGLESAKQALQEAVILPVKFPQFFTGKRRPWRAFLLYGPPGTGKSYLAKAVATEAESTFFSVSSSDLVSKWMGESEKLVSNLFQMARESAPSIIFVDEIDSLCGQRGEGNESEASRRIKTELLVQMQGVGHNDDKVLVLAATNTPYALDQAIRRRFDKRIYIPLPDLKARQHMFKVHLGDTPHNLSESDFEDLARKTEGFSGSDVSVCVKDVLFEPVRKTQDAVFFTQTSNGTWIPCGPKQQGAVQTTMQELDAKGLASQIIPPPITKTDFDKVLARQRPTVSKSDLEVHDRFTKEFGEEG
- dependence of Vps4 binding on the ATG8 first β-strand (Co-IP, ATG8-2.2, ATG8-4 and ATG8-4-S3): the role of the N-terminal β-strand region in conferring binding to AIM-containing proteins was confirmed; also recorded: The ATG8 region surrounding the first β-strand is responsible for discriminatory binding to potato Vps4
- interaction of Vps4 with ATG8 (Vps4:3xMyc co-expressed with GFP:ATG8 in N. benthamiana, anti-GFP IP, immunoblot): direct interaction between Vps4 and ATG8
